# Patent US20220242968A1 (BIOTHEUS, published 2022)
# T1: human CEACAM5 on tumor cells (LOVO, LS174T, KATO3) (human, UniProt P06731 35-685)
# T1 sequence (looked up): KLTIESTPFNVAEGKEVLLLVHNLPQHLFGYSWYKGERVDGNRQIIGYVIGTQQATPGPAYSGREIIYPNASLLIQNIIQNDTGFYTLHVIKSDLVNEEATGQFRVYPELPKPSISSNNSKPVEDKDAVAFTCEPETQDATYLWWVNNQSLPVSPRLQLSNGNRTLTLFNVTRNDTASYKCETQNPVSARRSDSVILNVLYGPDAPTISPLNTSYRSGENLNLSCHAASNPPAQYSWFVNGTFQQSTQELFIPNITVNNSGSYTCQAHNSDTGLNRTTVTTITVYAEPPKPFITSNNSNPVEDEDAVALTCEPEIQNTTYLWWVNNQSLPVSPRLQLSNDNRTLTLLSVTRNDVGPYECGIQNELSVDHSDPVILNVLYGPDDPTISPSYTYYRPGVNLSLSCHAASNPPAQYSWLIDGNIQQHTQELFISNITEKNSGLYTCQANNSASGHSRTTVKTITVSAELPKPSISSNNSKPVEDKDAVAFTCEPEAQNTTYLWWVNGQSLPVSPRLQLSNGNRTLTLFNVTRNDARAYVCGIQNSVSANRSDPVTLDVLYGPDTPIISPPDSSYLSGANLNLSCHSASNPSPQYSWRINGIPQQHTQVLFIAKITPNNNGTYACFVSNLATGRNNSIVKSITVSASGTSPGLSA
# T2: CEACAM7 overexpressed on CHO cells (UniProt Q14002 36-242, limits assumed)
# T2 construct: whole, on cells; also called CHO-CEACAM7
# T2 sequence (looked up): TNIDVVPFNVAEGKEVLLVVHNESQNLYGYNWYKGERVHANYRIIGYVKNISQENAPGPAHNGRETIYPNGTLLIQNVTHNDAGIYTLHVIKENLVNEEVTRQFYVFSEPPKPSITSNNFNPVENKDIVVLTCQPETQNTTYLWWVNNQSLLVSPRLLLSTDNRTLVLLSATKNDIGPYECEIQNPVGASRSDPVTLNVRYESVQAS
# T3: CEACAM8 overexpressed on CHO cells (UniProt P31997 35-320, limits assumed)
# T3 construct: whole, on cells; also called CHO-CEACAM8
# T3 sequence (looked up): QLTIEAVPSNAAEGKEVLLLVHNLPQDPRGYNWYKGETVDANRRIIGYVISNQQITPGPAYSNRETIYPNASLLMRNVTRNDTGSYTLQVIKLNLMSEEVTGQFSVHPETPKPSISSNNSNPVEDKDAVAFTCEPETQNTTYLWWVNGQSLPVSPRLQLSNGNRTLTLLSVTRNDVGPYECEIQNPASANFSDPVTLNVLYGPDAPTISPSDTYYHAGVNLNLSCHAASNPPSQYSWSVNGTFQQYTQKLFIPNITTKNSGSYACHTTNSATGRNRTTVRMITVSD
# T4: CEACAM1 overexpressed on SW620 cells (UniProt P13688 35-526, limits assumed)
# T4 construct: whole, on cells; also called SW620-CEACAM1
# T4 sequence (looked up): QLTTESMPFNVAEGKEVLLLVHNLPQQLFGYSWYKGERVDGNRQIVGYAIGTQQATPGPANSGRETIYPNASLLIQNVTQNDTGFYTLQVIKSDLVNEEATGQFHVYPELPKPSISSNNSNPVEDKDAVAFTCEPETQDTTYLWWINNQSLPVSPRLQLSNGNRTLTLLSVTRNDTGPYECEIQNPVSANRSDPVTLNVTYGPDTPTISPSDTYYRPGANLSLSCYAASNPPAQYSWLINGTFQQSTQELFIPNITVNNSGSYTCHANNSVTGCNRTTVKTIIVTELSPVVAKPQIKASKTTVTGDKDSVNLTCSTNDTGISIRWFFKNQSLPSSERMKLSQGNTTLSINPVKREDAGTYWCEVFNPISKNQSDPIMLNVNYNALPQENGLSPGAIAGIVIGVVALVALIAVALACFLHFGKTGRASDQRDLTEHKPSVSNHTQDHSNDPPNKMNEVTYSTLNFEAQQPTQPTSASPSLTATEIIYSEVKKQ
# T5: CEACAM3 overexpressed on SW620 cells (UniProt P40198 35-252, limits assumed)
# T5 construct: whole, on cells; also called SW620-CEACAM3
# T5 sequence (looked up): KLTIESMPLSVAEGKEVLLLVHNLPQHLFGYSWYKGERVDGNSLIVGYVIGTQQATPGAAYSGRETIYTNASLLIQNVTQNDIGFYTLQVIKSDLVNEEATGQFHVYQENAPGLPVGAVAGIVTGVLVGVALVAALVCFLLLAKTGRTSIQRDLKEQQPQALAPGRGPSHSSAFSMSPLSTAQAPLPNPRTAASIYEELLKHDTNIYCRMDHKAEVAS
# T6: human CEACAM5 protein (human, UniProt P06731 35-685, limits assumed)
# T6 construct: also called CD66e
# T6 sequence (looked up): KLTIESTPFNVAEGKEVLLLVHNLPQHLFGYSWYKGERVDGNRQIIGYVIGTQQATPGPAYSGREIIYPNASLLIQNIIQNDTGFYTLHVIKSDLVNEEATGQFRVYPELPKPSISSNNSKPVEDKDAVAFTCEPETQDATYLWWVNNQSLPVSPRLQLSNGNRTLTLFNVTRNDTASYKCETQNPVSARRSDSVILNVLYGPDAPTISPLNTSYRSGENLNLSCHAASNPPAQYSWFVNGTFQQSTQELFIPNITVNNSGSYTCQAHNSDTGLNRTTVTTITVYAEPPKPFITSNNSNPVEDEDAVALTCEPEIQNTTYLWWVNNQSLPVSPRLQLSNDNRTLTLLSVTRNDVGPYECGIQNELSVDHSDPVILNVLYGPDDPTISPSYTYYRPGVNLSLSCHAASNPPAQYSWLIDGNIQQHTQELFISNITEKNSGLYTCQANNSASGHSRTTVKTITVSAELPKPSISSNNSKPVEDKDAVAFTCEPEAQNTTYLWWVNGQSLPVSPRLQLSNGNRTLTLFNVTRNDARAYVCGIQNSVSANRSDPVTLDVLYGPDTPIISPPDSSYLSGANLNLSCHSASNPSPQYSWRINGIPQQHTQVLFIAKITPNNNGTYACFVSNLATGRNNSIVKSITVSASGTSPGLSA
# Tests used:
# [1] = target: T1, human CEACAM5 on tumor cells (LOVO, …); experiment: cell-based or functional assay
# [2] = target: T1, human CEACAM5 on tumor cells (LOVO, …); experiment: FACS on LS174T cells
# Method: LS174T cells (tumor cells with high expression of CEACAM5) were cultured in RPMI1640 medium containing 10% FBS. After digesting LS174T cells with TrypLE trypsin, the cells were centrifuged and resuspended in DPBS solution (FACS buffer, 4° C.) containing 2% BSA; then, the cells were added at 5×10⁵/100 μL/well to the U-shaped bottom 96-well plate, and a series of dilution solutions of antibody were added to the U-shaped bottom 96-well plate, mixture was incubated at 4° C. for 1 hour. After incubation, the mixture was centrifuged and the resulted supernatant was discarded; 100 μl of secondary antibody (anti-human IgG Fc-APC) was added to each well, and incubated at 4° C. for 1 hour. After incubation, the cells were washed once with FACS buffer, resuspended in 200 μl FACS buffer, and the fluorescence signal value was read in BD C6 plus.
# The 47th amino acid (Cys) of the human-mouse chimeric antibody UM05-5L VH was mutated to Trp, and the mutated antibody was named UM05-5L C47W; the 47th amino acid (Trp) of the humanized antibody hUM05-3 VH was mutated to Cys, and the mutated antibody was named hUM05-3 W47C. As described in Example 10, the ability of the antibody binding to LS174T cells was tested.
# [3] = target: T2, CEACAM7 overexpressed on CHO cells; experiment: FACS on CHO-CEACAM7 cells
# Method: (§1) Flow cytometry (FACS) was used to detect the binding of antibody to LOVO tumor cells naturally expressing human CEACAM5 or cells overexpressing different CEACAM family members. In short, cells were first collected, washed with PBS, counted, and diluted to obtain 2*10⁶/ml cell suspension; 10 μl of an antibody working solution was added to 100 μl of the cell suspension, and incubated at 4° C. for 30 min in the dark; after washing twice with PBS, a corresponding fluorescent-labeled secondary antibody Goat-anti-Human IgG (H+L) (Invitrogen) was added, incubated at 4° C. for 30 min in the dark, after washing twice with PBS, it was suspended in 400 μl of FACS buffer, and the binding profile of the antibody to the cells were detected by FACS.
# (§2) The binding profile of the supernatants of the chimeric antibody UM05-5L and the control antibody UM05-8 (anti-CEACAM5 antibody, prepared by the hybridoma method in our laboratory) to different cells at a concentration of 3 μg/mL were detected, in which SW620-CEACAM1 was a cell overexpressing CEACAM1, SW620-CEACAM3 was a cell overexpressing CEACAM3, CHO-CEACAM6 was a cell overexpressing CEACAM6, CHO-CEACAM7 was a cell overexpressing CEACAM7, and CHO-CEACAM8 was a cell overexpressing CEACAM8. […]
# [4] = target: T3, CEACAM8 overexpressed on CHO cells; experiment: FACS on CHO-CEACAM8 cells
# Method: as §1, §2
# [5] = target: T4, CEACAM1 overexpressed on SW620 cells; experiment: FACS on SW620-CEACAM1 cells
# Method: as §1, §2
# [6] = target: T5, CEACAM3 overexpressed on SW620 cells; experiment: FACS on SW620-CEACAM3 cells
# Method: as §1, §2
# [7] = target: T6, human CEACAM5 protein; experiment: ELISA, plate coated with human CEACAM5 protein at 1 µg/mL
# Method: On the next day, it was first washed with 300 μL of PBST (Tween20: 0.5% o) for 3 times, then blocked with 100 μL/well of 5% BSA/PBS for 1 hour, and shaken at room temperature. Washing was performed 3 times with 300 μL of PBST. A series of dilution solutions of antibody samples were prepared with PBS, and added at 100 μL/well to the 96-well plate and shaken at room temperature for 1 hour. Washing was performed 3 times with 300 μL of PBST. A secondary antibody goat anti-human IgG HRP solution was prepared, added at 100 μL/well to the 96-well plate, and shaken at room temperature for 30 minutes. Washing was performed 4 times with 300 μL of PBST. 100 μL/well TMB was added to perform color development for 20 min. 100 μL/well of 0.6N H₂SO₄ was added to stop the color development, and OD450nm was detected.
# [8] = target: T1, human CEACAM5 on tumor cells (LOVO, …); experiment: FACS on LOVO tumor cells naturally expressing human CEACAM5
# Method: as §1
# Furthermore, we used FACS to detect the EC50 of the chimeric antibody UM05-5L binding to LOVO tumor cells that naturally expressed human CEACAM5. […] Based on the above results, the chimeric antibody UM05-5L had excellent binding affinity, specificity and selectivity to CEACAM5.
"ADCC activity (luciferase in Jurkat/ADC effector cells, LOVO target cells), EC50 [1]",EC50 [2],Emax MFI (Average fluorescence intensity) [2],binding result [3],binding result [4],binding result [5],binding result [6],EC50 [7],EC50 [8],Binder
0.85 µg/mL,0.81 µg/mL,79700 MFI,no binding (tested: 3 µg/mL),no binding (tested: 3 µg/mL),no binding (tested: 3 µg/mL),no binding (tested: 3 µg/mL),0.105 µg/mL,3.17 µg/mL,"human-mouse chimeric antibody UM05-5L (antibody, human IgG1, kappa, V domains shown, expressed in HEK293) VH: QVQLQQSDADLVKPGASVKISCKVSGYTFTDHTIHWMKQRPEQGLECIGYIYPRDGNTKYNEKFKGKATLTADRSSITAYMQLNSLTSEDSAVYFCARPIYDGYSFDYWGQGTTLTVSS VL: QIVLTQSPAIMSASPGEKVTMTCRASSSVSYMHWYQQKSGTSPKRWIYDTSKLASGVPARFSGSGSGTSYSLTISSMAAEDAATYYCQQWTRNPPTFGAGTKLELKR"
–,2.46 µg/mL,55200 MFI,–,–,–,–,–,–,"UM05-5L C47W (antibody, human IgG1, kappa, V domains shown, also called mutated human-mouse chimeric antibody UM05-5L (VH Cys47 to Trp)) VH: QVQLQQSDADLVKPGASVKISCKVSGYTFTDHTIHWMKQRPEQGLEWIGYIYPRDGNTKYNEKFKGKATLTADRSSITAYMQLNSLTSEDSAVYFCARPIYDGYSFDYWGQGTTLTVSS VL: QIVLTQSPAIMSASPGEKVTMTCRASSSVSYMHWYQQKSGTSPKRWIYDTSKLASGVPARFSGSGSGTSYSLTISSMAAEDAATYYCQQWTRNPPTFGAGTKLELKR"
–,0.53 µg/mL,52900 MFI,–,–,–,–,–,–,"humanized antibody hUM05-3 (antibody, V domains shown, detected with anti-human IgG Fc-APC) VH: EVQLVQSGAEVKKPGATVKISCKVSGYTFTDHTMHWMQQAPGQGLEWIGLIYPRDGSTIYNEKFQGRATLTADRSTDTAYMELSSLRSEDTAVYFCARPIYDGYSFDYWGQGTLVTVSS VL: QIVLTQSPATLSASPGERATLSCRASSSVSYMHWYQQKPGQAPKRWIYDTSNRATGVPARFSGSGSGTDYTLTISSMEPEDAAVYYCQQWTRNPPTFGQGTKLELK"
–,1.47 µg/mL,34400 MFI,–,–,–,–,–,–,"hUM05-3 W47C (antibody, V domains shown, also called mutated humanized antibody hUM05-3 (VH Trp47 to Cys)) VH: EVQLVQSGAEVKKPGATVKISCKVSGYTFTDHTMHWMQQAPGQGLECIGLIYPRDGSTIYNEKFQGRATLTADRSTDTAYMELSSLRSEDTAVYFCARPIYDGYSFDYWGQGTLVTVSS VL: QIVLTQSPATLSASPGERATLSCRASSSVSYMHWYQQKPGQAPKRWIYDTSNRATGVPARFSGSGSGTDYTLTISSMEPEDAAVYYCQQWTRNPPTFGQGTKLELK"
